The target in test [1] is mature plasmepsin 4 of Plasmodium berghei (PbPM4), auto-matured from semi-proPbPM4 (Plasmodium berghei ANKA). Kind of test: enzyme inhibition kinetics (Ki of competitive inhibition); initial cleavage velocities of a chromogenic peptide substrate at varied inhibitor concentration, spectrophotometric; proPbPM4 pre-incubated in 100 mM sodium citrate pH 5.0, 37°C, 5 min; tight-binding or non-tight-binding competitive fit.

In test [2] the target is human cathepsin D (human) (UniProt P07339). Kind of test: enzyme inhibition kinetics (Ki of competitive inhibition); initial cleavage velocities of a chromogenic peptide substrate at varied inhibitor concentration; hcatD pre-incubated in 200 mM sodium formate pH 3.7, 37°C, 5 min.
The target in test [3] is plasmepsin 4 from Plasmodium malariae (Plasmodium malariae). Kind of test: enzyme inhibition kinetics (Ki of competitive inhibition); initial cleavage velocities of a chromogenic peptide substrate at varied inhibitor concentration; plasmepsins pre-incubated in 100 mM sodium formate pH 4.5, 37°C, 5 min to convert zymogen to mature enzyme.
Test [4] deals with plasmepsin 4 from Plasmodium ovalae (P. ovalae). The description is as above.
Test [5] deals with plasmepsin 4 from Plasmodium vivax (Plasmodium vivax). The description is as above.

Among the data in paper PMC4624963, “Enzymatic Characterization of Recombinant Food Vacuole Plasmepsin 4 from the Rodent Malaria Parasite Plasmodium berghei” (PLoS ONE, 2015) are Ki values, retold here.

Where no end group is shown, it is not given here.

B1: compound 2 (KPFSLΨLQF), peptidomimetic inhibitor designed for PfPM1 (peptide)
peptide: KPFSLLQF
modifications: not fully specified (residue 5); printed as KPFSLΨLQF; also: Ψ pseudopeptide bond between L5 and L6
In test [1], B1 had a Ki of 379 nM.

B2: compound 5 (KPLEFΨFRV), peptidomimetic inhibitor designed for PvPM4 (peptide)
peptide: KPLEFFRV
modifications: not fully specified (residue 5); printed as KPLEFΨFRV; also: Ψ pseudopeptide bond between F5 and F6
B2 returned a Ki in test [1] of 1.4 nM.

B3: compound 1 (KPYEFΨRQF), peptidomimetic inhibitor designed for PbPM4 (peptide)
peptide: KPYEFRQF
modifications: not fully specified (residue 5); printed as KPYEFΨRQF; also: Ψ pseudo-peptide bond between F5 and R6
With B3, the Ki in test [2] worked out at 41000 nM; in test [3] it was 445 nM; in test [4] it was 1900 nM; in test [5], 426 nM; in test [1] it was 3900 nM.

B4: compound 7 (KPFELΨAWT), peptidomimetic inhibitor designed for PmPM4 (peptide)
peptide: KPFELAWT
modifications: not fully specified (residue 5); printed as KPFELΨAWT; also: Ψ pseudopeptide bond between L5 and A6
Regarding B4, the inhibition constant Ki in test [1] turned out to be 8100 nM.

B5: compound 6 (KPLEFΨYRV), peptidomimetic inhibitor designed for PoPM4 (peptide)
peptide: KPLEFYRV
modifications: not fully specified (residue 5); printed as KPLEFΨYRV; also: Ψ pseudopeptide bond between F5 and Y6
In test [1], B5 came in with a Ki of 0.12 nM.

B6: compound 4 (KPVEFΨRQT), peptidomimetic inhibitor designed for PfPM4 (peptide)
peptide: KPVEFRQT
modifications: not fully specified (residue 5); printed as KPVEFΨRQT; also: Ψ pseudopeptide bond between F5 and R6
In test [1], B6 yielded a Ki of 502 nM.

For orientation: Ki means a dissociation constant, usually derived from enzyme kinetics or from competition with a known ligand. Low readings indicate higher affinity, high ones lower affinity.
